Results published in patent publication US9296810 (Novartis, dated 2016).

B1: SEQ ID NO 17 (designed binder)
chain: VSDVPRDLEVVAATPTSLLISWDAPAVTVRYYRITYGQRVGKTKVHEFTVPGSKSTATIRGLKRGKDYTITVYAVTGRGDSPASSKPISINYFPET
B2: SEQ ID NO 18 (designed binder)
chain: VSDVPRDLEVVAATPTSLLISWDAPAVTVRYYRITYGHTAKTRHHHEFTVPGSKSTATICKSRRGSDYTITVYAVTGRGDSPASSKPISINYQAET
B3: SEQ ID NO 19 (designed binder)
chain: VSDVPRDLEVVAATPTSLLISWDAPAVTVRYYRITYGYGAANRRAHEFTVPGSKSTATISGLKRGRDYTITVYAVTGRGDSPASSKPISINYRHEL
B4: SEQ ID NO 29 (designed binder)
chain: VSDVPRDLEVVAATPTSLLISWDAPAVTVRYYRITYGDRAKNTRIKEFTVPGSKSTATISGLKRGRDYTITVYAVTGRGDSPASSKPISINYRLEG
B5: SEQ ID NO 21 (designed binder)
chain: VSDVPRDLEVVAATPTSLLISWDAPAVTVRYYRITYGDSRHHPRAHEFTVPGSKSTATITGCKRGHDYTITVYAVTGRGDSPASSKPISINYRYEH
B6: SEQ ID NO 22 (designed binder)
chain: VSDVPRDLEVVAATPTSLLISWDAPAVTVRYYRITYGKSHGHRQKHEFTVPGSKSTATISDYRQGGDYTITVYAVTGRGDSPASSKPISINYKGEL
B7: SEQ ID NO 23 (designed binder)
chain: VSDVPRDLEVVAATPTSLLISWDAPAVTVRYYRITYGVMGDTKKVKEFTVPGSKSTATIERIKLGRDYTITVYAVTGRGDSPASSKPISINYRKEH
B8: SEQ ID NO 24 (designed binder)
chain: VSDVPRDLEVVAATPTSLLISWDAPAVTVRYYRITYGEASKNHRQHEFTVPGSKSTATISRIKRGTDYTITVYAVTGRGDSPASSKPISINYSPES
B9: SEQ ID NO 25 (designed binder)
chain: VSDVPRDLEVVAATPTSLLISWDAPAVTVRYYRITYGEKPRKYRSSEFTVPGSKSTATIRHSKHGKDYTITVYAVTGRGDSPASSKPISINYMREI
B10: SEQ ID NO 26 (designed binder)
chain: VSDVPRDLEVVAATPTSLLISWDAPAVTVRYYRITYGKTARKYHMQEFTVPGSKSTATISGIKRGTDYTITVYAVTGRGDSPASSKPISINYNSEH
B11: SEQ ID NO 27 (designed binder)
chain: VSDVPRDLEVVAATPTSLLISWDAPAVTVRYYRITYGLTKRKSLISEFTVPGSKSTATIIGLKAGKDYTITVYAVTGRGDSPASSKPISINYKTEN
B12: SEQ ID NO 28 (designed binder)
chain: VSDVPRDLEVVAATPTSLLISWDAPAVTVRYYRITYGKVKAKAPLVEFTVPGSKSTATISSLKTGKDYTITVYAVTGRGDSPASSKPISINYRYEG
B13: SEQ ID NO 30 (designed binder)
chain: VSDVPRDLEVVAATPTSLLISWDAPAVTVRYYRITYGIPAKKHHTHEFTVPGSKSTATITGLKSGVDYTITVYAVTGRGDSPASSKPISINYRTET
B14: SEQ ID NO 31 (designed binder)
chain: VSDVPRDLEVVAATPTSLLISWDAPAVTVRYYRITYGEVHGHHTAHEFTVPGSKSTATIVRLKRGKDYTITVYAVTGRGDSPASSKPISINYCPER
B15: SEQ ID NO 32 (designed binder)
chain: VSDVPRDLEVVAATPTSLLISWDAPAVTVRYYRITYGMISGDKRRREFTVPGSKSTATIDRLKLGRDYTITVYAVTGRGDSPASSKPISINYRLES
B16: SEQ ID NO 33 (designed binder)
chain: VSDVPRDLEVVAATPTSLLISWDAPAVTVRYYRITYGVMHDKHPKKEFTVPGSKSTATISGLKRGRDYTITVYAVTGRGDSPASSKPISINYKSEA
B17: SEQ ID NO 34 (designed binder)
chain: VSDVPRDLEVVAATPTSLLITWDAPAVTVRYYRITYGVAGKTKPRSEFTVPGSKSTATIPHLKLGHDYTITVYAVTGRGDSPASSKPISINYRAEH
B18: SEQ ID NO 35 (designed binder)
chain: VSDVPRDLEVVAATPTSLLISWDAPAVTVRYYRITYGKNGRHNLDHEFTVPGSKSTATISGLKRGVDYTITVYAVTGRGDSPASSKPISINYHNEN
B19: SEQ ID NO 36 (designed binder)
chain: VSDVPRDLEVVAATPTSLLISWDAPAVTVRYYRITYGNIVAANALPEFTVPGSKSTATITGLMSGIDYTITVYAVTGRGDSPASSKPISINYSTEY
B20: SEQ ID NO 37 (designed binder)
chain: VSDVPRDLEVVAATPTSLLISWDAPAVTVRYYRITYGKLSQPTKRREFTVPGSKSTATISRLKPGLDYTITVYAVTGRGDSPASSKPISINYHYEL
B21: SEQ ID NO 38 (designed binder)
chain: VSDVPRDLEVVAATPTSLLISWDAPAVTVRYYRITYGKSSHNSAAKEFTVPGSKSTATITRLKSGTDYTITVYAVTGRGDSPASSKPISINYKPEY
B22: SEQ ID NO 39 (designed binder)
chain: VSDVPRDLEVVAATPTSLLISWDAPAVTVRYYRITYGKKHKHTTVREFTVPGSKSTATIAGKSLGGDYTITVYAVTGRGDSPASSKPISINYTSET
B23: SEQ ID NO 40 (designed binder)
chain: VSDVPRDLEVVAATPTSLLISWDAPAVTVRYYRITYGRPGHNSKVHEFTVPGSKSTATIDGAKKGHDYTITVYAVTGRGDSPASSKPISINYIMEH
B24: SEQ ID NO 41 (designed binder)
chain: VSNIPKDLEVVAATPTSLLISWDAPAVTVRYYRITYGQTMNGQSNVEFTVPGSKSTATISPSKLGLDYTITVYAVTGRGDSPASSKPISINYLSET
B25: clone 89 (bispecific Fn3-based binding molecule; VEGFR2/Bottom side SEQ ID NO: 8 merged molecule) (designed binder)
chain: MGVSDVPRDLEVVAATPTSLLISWRHPHFPTRYYRITYGRTDAKSTRKEFTVPLQPPLATIGELKRGRDYTITVYAVTKERNGRELFTPISINYRPEKENLYFQGHHHHHH
notes: the entry ends in ENLYFQG-HHHHHH; also called VEGFR2-HAS; single bispecific fibronectin molecule
B26: SEQ ID NO 8 (designed binder)
chain: VSDVPRDLEVVAATPTSLLISWDAPAVTVRYYRITYGRTDAKSTRKEFTVPGSKSTATIGELKRGRDYTITVYAVTGRGDSPASSKPISINYRPEK
notes: used to build clone 87 and clone 89
B27: clone 87 (multispecific Fn3-based binding molecule; VEGFR2 top side binder fused to bottom side sequence 8 from FIG. 7 with GS linker) (designed binder)
chain: MGVSDVPRDLEVVAATPTSLLISWRHPHFPTRYYRITYGETGGNSPVQEFTVPLQPPLATISGLKPGVDYTITVYAVTKERNGRELFTPISINYRTGGGGSGGGGSVSDVPRDLEVVAATPTSLLISWDAPAVTVRYYRITYGRTDAKSTRKEFTVPGSKSTATIGELKRGRDYTITVYAVTGRGDSPASSKPISINYRPEKENLYFQGHHHHHH
notes: ELISA used cleared lysate, Biacore soluble protein; also called Fibronectin clone 87 (multispecific)

Target: T1, Human Serum Albumin (HSA) (human, UniProt P02768 25-609)
T1 sequence (P02768 25-609 limits assumed): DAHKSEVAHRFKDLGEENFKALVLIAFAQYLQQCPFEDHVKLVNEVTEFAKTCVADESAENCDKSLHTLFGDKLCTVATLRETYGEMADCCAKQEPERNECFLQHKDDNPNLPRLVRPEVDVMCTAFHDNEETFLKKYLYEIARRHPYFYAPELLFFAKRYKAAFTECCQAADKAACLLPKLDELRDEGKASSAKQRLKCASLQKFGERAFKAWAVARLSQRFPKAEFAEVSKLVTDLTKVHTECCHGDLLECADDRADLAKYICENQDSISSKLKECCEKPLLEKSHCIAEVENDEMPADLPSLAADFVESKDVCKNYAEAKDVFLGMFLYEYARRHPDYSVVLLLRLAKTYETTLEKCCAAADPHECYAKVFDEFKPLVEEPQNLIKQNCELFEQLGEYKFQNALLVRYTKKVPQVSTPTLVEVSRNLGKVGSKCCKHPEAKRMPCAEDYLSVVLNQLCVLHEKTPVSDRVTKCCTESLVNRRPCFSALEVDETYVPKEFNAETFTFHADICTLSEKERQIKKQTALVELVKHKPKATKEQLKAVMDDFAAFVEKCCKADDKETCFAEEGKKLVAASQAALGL
Test: yeast display selection

Binding result, binds:
B1
B2
B3
B4
B5
B6
B7
B8
B9
B10
B11
B12
B13
B14
B15
B16
B17
B18
B19
B20
B21
B22
B23
B24

Target: T1, Human Serum Albumin (HSA)
Test: sandwich ELISA: VEGFR2-Fc immobilized, cleared lysate, then HSA, anti-HSA-HRP detection
Experimental: (§1) The binding characteristic of the multispecific and bispecific binders from Examples 6 and 7 were assessed as follows. […] Aliquots of cleared lysate of wild-type Fn10 (lane1), clone 87 (multispecific) (lane2), clone 89 (bispecific) (lane3) and PBS were added to the wells and incubated for 1 hour at room-temperature. These were run at different concentrations 1, 2 and 3. After washing 5 times with PBS/0.05% Tween, the wells were incubated with 1 µg/ml HSA in PBS. Detection was performed with HRP conjugated chicken anti-human HSA antibody (Abcam). The ELISA was developed with a […] substrate and the OD-values measured at 450 nm.

Binding result, binds:
B25

Target: T1, Human Serum Albumin (HSA)
Test: yeast display selection and ELISA screen of the HSA library
Procedure, shortened: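 Single clones from the HSA library were expressed in E. coli overnight at 37 °C in OvernightExpress medium in 96 deep-well plates, freeze-thawed, lysed with lysozyme/EDTA then DNaseI, and cleared. Wells coated overnight at 4 °C with 1.0 µg/mL HSA and blocked with casein received 50 µL lysate for 1 hour, then were washed. Binding was detected with HRP anti-His-tag antibody and TMB substrate, read as optical density at 450 nm per clone extract.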

Binding result, binds:
B26

Target: T1, Human Serum Albumin (HSA)
Test: sandwich ELISA
Experimental: as §1

Binding result, binds:
B27
